Reference: US8846363B2, “Compositions of and methods of using sulfatases from Flavobacterium heparinum” (priority 2007, dated 2014)

How the values were obtained:
[1] = ESI mass spectrometry of desulfation of non-derivatized sulfated glucosamine monosaccharides; format: biochemical
Protocol: Electrospray ionization mass spectrometry was performed in the negative ion mode using an Agilent 1100 Series VL LC/MSD Trap. For simplicity, the samples were prepared by adding MeOH directly to the enzymatic reaction mixtures without purification and were directly injected into the source of the mass spectrometer using a syringe pump at a rate of ˜8 μl/min, The SPS function of the software (LC/MSD Trap Software 4.1 Build 143, MSD Trap Control Version 5.0 Build 65) was used to tune the instrument with the target mass set to the mass of the substrate, the sample stability set to 50% and the drive level set to 100%. Data were acquired over the scan range of 100-2200 m/z by accumulating 30,000 ions per scan. Capillary voltage was set to 3000 V. Nitrogen was used as the drying gas while helium was used as the nebulizing gas, with flow rates of 5 and 15 liters/min, respectively. In each case a minimum of ten spectra were averaged.
For the experiments determining the order of action of the enzymes, reactions were carried out with 100 μM substrate, 2 mM CaCl2, 5 μM enzyme and various buffers at 37° C. overnight. Samples were diluted 1:10 in MeOH prior to analysis in the ESI, and the carrier solvent was H2O:MeOH (1:10, v/v). For the time course experiments showing desulfation of different unlabeled monosaccharides, reactions were carried out with 2.5 mM substrate, 5 mM CaCl2, 1 μM enzyme and 50 mM acetate buffer at pH 5.5 for the 6-O-sulfatase and pH 6.0 for the N-sulfamidase at 37° C. Reactions were quenched by diluting the samples 1:4 in MeOH. The carrier solvent was H2O:MeOH (1:4, v/v). In these experiments, 4-MU-GlcNS was added prior to injection as an internal standard to monitor ionization efficiency and mass accuracy within the source and trap.

[2] = Desulfation of unsaturated heparin disaccharides by capillary electrophoresis; format: biochemical; conditions: ΔU±2SHNAc,6S, ΔU±2SHNS,6S (6-O-sulfatase); ΔU±2SHNS+6S (N-sulfamidase)
Protocol: The ability of both enzymes to desulfate unsaturated heparin and chondroitin disaccharides was assessed essentially as described for capillary electrophoresis based compositional analyses of enzymatically generated glycosaminoglycan di- and tetra-saccharides (Venkataraman et al., 1999 Science 286, 537-542). For these studies, the following disaccharide substrates were tested: ΔUGlcNAc,6S; ΔU2SGlcNAc,6S; ΔUGlcNS; ΔUGlcNS,6S; ΔU2SGlcNS,6S; and ΔUGalNac,6S. Reactions included 500 μM substrate, 10 μM enzyme, 50 mM sodium acetate, pH 6.5 and +/−2 mM CaCl2 in a 20 μL reaction volume.

[3] = substrate: Cc1cc(=O)oc2cc(O[C@H]3O[C@H](CO)[C@@H](O)[C@H](O)[C@H]3NS(=O)(=O)O)ccc12; assay: Steady-state kinetics, coupled N-sulfamidase/α-glucosidase fluorimetric assay with 4-MU-GlcNS; format: biochemical, Flavobacterium heparinum (Pedobacter heparinus)
Excerpt: Recombinant protein expression in the E. coli strain BL21(DE3) and one-step affinity purification by nickel chelation chromatography were as described for 2-O-sulfatase (Myette et al., 2003 J Biol Chem 278, 12157-12166). The prediction of NH2-terminal signal sequences and putative cleavage sites for the two respective proteins was made by the Von Heijne computational method (Nielsen et al., 1997 Protein Eng 10, 1-6.). Engineering and expression of these truncated proteins (minus signal sequences) were as described above for the full-length genes with the exception of substituting the 5′ primers which were used in the original PCR amplification step. These internal primers included 5′ TCTAGACATATGTCTTGCCAGCAGCCTAAAC 3′ (for ORF B; SEQ ID NO: 15) and 5′ TCTAGACATATGTCCTGCACTTCGCCGGAA 3′ (for ORF C; SEQ ID NO: 16), with the Nde 1 site underlined. As such, the ORF B gene sequence begins at Met 18 (FIG. 1). Likewise, the ORF C gene sequence begins at Ser 21 (FIG. 2). Removal of the 6×His tag was achieved by site-specific protease cleavage using the thrombin cleavage capture kit (Novagen, San Diego, Calif.). Proteolysis conditions were generally as described for other recombinantly expressed flavobacterial heparin degrading enzymes. […]
Indirect measurement of enzyme activity was also made using a fluorimetrically-based plate assay in which the prerequisite desulfation of the appropriate glucopyranoside 1→4 methlybelliferone substrate by either the 6-O-sulfatase or N-sulfamidase was coupled to the glucosidase-mediated hydrolysis of the stereo-specific 1→4 glycosidic linkage between the pyranose ring and the adjoining fluorophore. Release of the free fluorophore (4-MU) was monitored spectroscopically as described above for the arylsulfatase assay using 4-MU sulfate. […] Reaction conditions were optimized to satisfy three related criteria: 1) linear readout of fluorescent signal which is directly proportional to sulfatase activity; 2) quantitative release of 4-MU by glucosidase activity under every biochemical condition examined and; 3) negligible fluorescent quenching of the free chromophore.
Coupled N-sulfamidase assay was generally described for the 6-O-sulfatase, but with the following modifications: 4-MU-GlcNS as substrate, 50 mM sodium acetate at pH 6.0 (instead of 5.5) and 1 μM enzyme. […] The obvious difference in enzyme efficacies between α-glucosidase versus β-glucosidase is reflected in the substantially longer incubation times required for the α-glucosidase to quantitatively hydrolyze the glycosidic α1→4 linkage between the fluorophore and the desulfated glucosamine. […]

[4] = other: Addition: 0.5 mM Ca^+2, pH 6.0, 37.0 °C
[5] = other: Addition: 5 mM Ca^+2, pH 6.0, 37.0 °C

B1: Flavobacterium heparinum 6-O-sulfatase (ORF B), recombinant, NH2-terminal truncation lacking signal sequence, SEQ ID NO: 2 (Pedobacter heparinus DSM 2366) (protein)
chain: TLMSCQQPKPAESAKRPNIVFIMTDDHTIQAISAYGSKLVKTPNLDRIANEGMLFNNCFVTNAVCGPSRATILTGKYSHLNGLTDNSKVFDSTQVIYPQLLKKAGYQTAMIGKWHLGSTPMGFDYYSILPNQGQYYQPEFIENGHLVKEKGYVTDLITDKAIGFLEKRDHDKPFLMIYQHKAPHRNWLPAPRHLGMFDDTVFPEPANLLDDFKGRGRAAKEQLMNISTDMWPAWDLKMLSTAQLDSMAKLPVSPKFKDAKGDDYQQANDPSLDKARFFEVYNRMTDAEKVQWRKVYDKRVAEFKRLNPKGADLVRWKYQQYMRDYLACVVSVDENVGRLMDYLKKIGELDNTIIVYTSDQGFYLGEHGYFDKRFMYDESFRTPLMVRYPPSVKAGSVSNAFAMNLDFAPTLLDYAGVKIPADMQGLSLRPVLDNAGKSPENWRKAVYYHYYEFPSWHMVKRHYGIRTERYKLIHFYNDIDEWELYDMQKDPHEMQNLYNDKAYEPIIKDLKVQMKKLQVQYKDTNPTEAL
notes: E. coli BL21(DE3), N-terminal 6xHis removed by thrombin
effect of the presence of a 3-O-sulfate [1]: completely inhibited
requirement at the 2-amino position of glucosamine [1]: required a substituted amine (acetate or sulfate) at the 2-amino position
comparative kinetic analysis GlcNAc,6S vs. GlcNS,6S ([1]; time course): only a modest preference of the enzyme for the monosulfated substrate
desulfation of unsaturated heparin disaccharides [2]: None of the unsaturated disaccharides were desulfated

B2: Flavobacterium heparinum N-sulfamidase (ORF C), recombinant, NH2-terminal truncation lacking signal sequence, SEQ ID NO: 4 (Pedobacter heparinus DSM 2366) (protein)
chain: SCTSPEKKTDRPNILMIMSDNQSWNHVGSYGDQTVRTPNMDRIAKEGVRFTNAFCSSPSCTPARAGMLTGQDIWRLEDGGNLWGVLPVKYKVYPDLLEEAGYAIGFQGKGWGPGSFEANKRPRNPAGNEFKSFGAFLKDKKEGPWCYWISSHEPHRPYVEGSGEKAGIDPNKVKVPAYLPDHISIRKDIADYYAAVETFDRELGEALDQLKASGELDNTVIVVCSDNGWQMPRGLANLYDFGTHVPLIISWPGKFKQDVVADNLVTLNDLAPTFLQLGKVPVPADMTGKSLLPIVEAGKKDEKPRDYVVLGRERHAFVRRHGLGYPGRAIRTKDYLYIKNYEPNRWPAGDPPFYGDIDPYMFNWPGETKYYLIEHKDDPKVKSFFELGMGKRPAEELFDINKDPDELHNLAALPEYQKIKQELVAKLRNYLVATKDPRETNGNIQIWDTAAYFSEIDKTPKPSKEMQKRFKLDSSYNYLK
notes: as for B1
effect of the presence of a 3-O-sulfate [1]: completely inhibited
activity at the 2-amino position when a second sulfate at the 6-O position is present ([1]; substrate HNS,6S): absolutely abolished
desulfation of unsaturated heparin disaccharides [2]: None of the unsaturated disaccharides were desulfated
Km [3, 4]: 45 µM
kcat [3, 4]: 0.085 s⁻¹
Km [3, 5]: 178 µM
kcat [3, 5]: 0.365 s⁻¹
